We go through six substances from the supplement of paper PMC5998384.

For series [1], the system named is HeLa Kyoto. Nature of the series: solubility in G1/S (NP-40 vs SDS abundance) (log2 ratio); higher = more soluble. To be noted: cell cycle stage: G1/S.
Series [2] has as its system HeLa Kyoto. Put plainly: melting temperature (median over replicates), in situ; higher = more thermally stable.
Series [3] relates to HeLa Kyoto. Put plainly: solubility change mitosis vs G1/S (difference of NP-40 vs SDS log2 ratios) (log2 ratio difference); higher = more soluble in mitosis.
Series [4] relates to HeLa Kyoto. Nature of the series: thermal stability score vs G1/S (z-score of summed log2 fold changes over temperatures); higher = more thermally stable than in G1/S.
Where [5] appears, read: cell cycle stage: early G1 (4.5 h after nocodazole release).
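For melting temperature (median over replicates), in situ in this document: HeLa Kyoto cells synchronized by double thymidine or nocodazole block, proteins quantified by TMT10plex mass spectrometry, three independent biological replicates.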
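For solubility change mitosis vs G1/S (difference of NP-40 vs SDS log2 ratios) in this document: synchronized HeLa Kyoto cells (double thymidine block for G1/S, nocodazole release for mitosis), protein amounts in NP-40 versus SDS lysates quantified by mass spectrometry, three biological replicates.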
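For solubility in G1/S (NP-40 vs SDS abundance) in this document: HeLa Kyoto cells arrested at G1/S by double thymidine block, proteins quantified by TMT10plex mass spectrometry in mild NP-40 versus SDS extracts, three biological replicates.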
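For thermal stability score vs G1/S (z-score of summed log2 fold changes over temperatures) in this document: synchronized HeLa Kyoto cells, proteins quantified by TMT10plex mass spectrometry, three biological replicates, mitosis taken 0.5 h after nocodazole release, G1/S directly after double thymidine block.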

As for “MFGAGDEDDTDFLSPSGGARLASLFGLDQAAAGHGNEFFQYTAPKQPKKGQGTAATGNQATPKTAPATMSTPTILVATAVHAYRYTNGQYVKQGKFGAAVLGNHTAREYRILLYISQQQPVTVARIHVNFELMVRPNNYSTFYDDQRQNWSIMFESEKAAVEFNKQVCIAKCNSTSSLDAVLSQDLIVADGPAVEVGDSLEVAYTGWLFQNHVLGQVFDSTANKDKLLRLKLGSGKVIKGWEDGMLGMKKGGKRLLIVPPACAVGSEGVIGWTQATDSILVFEVEVRRVKFARDSGSDGHSVSSRDSAAPSPIPGADNLSADPVVSPPTSIPFKSGEPALRTKSNSLSEQLAINTSPDAVKAKLISRMAKMGQPMLPILPPQLDSNDSEIEDVNTLQGGGQPVVTPSVQPSLHPAHPALPQMTSQAPQPSVTGLQAPSAALMQVSSLDSHSAVSGNAQSFQPYAGMQAYAYPQASAVTSQLQPVRPLYPAPLSQPPHFQGSGDMASFLMTEARQHNTEIRMAVSKVADKMDHLMTKVEELQKHSAGNSMLIPSMSVTMETSMIMSNIQRIIQENERLKQEILEKSNRIEEQNDKISELIERNQRYVEQSNLMMEKRNNSLQTATENTQARVLHAEQEKAKVTEELAAATAQVSHLQLKMTAHQKKETELQMQLTESLKETDLLRGQLTKVQAKLSELQETSEQAQSKFKSEKQNRKQLELKVTSLEEELTDLRVEKESLEKNLSERKKKSAQERSQAEEEIDEIRKSYQEELDKLRQLLKKTRVSTDQAAAEQLSLVQAELQTQWEAKCEHLLASAKDEHLQQYQEVCAQRDAYQQKLVQLQEKCLALQAQITALTKQNEQHIKELEKNKSQMSGVEAAASDPSEKVKKIMNQVFQSLRREFELEESYNGRTILGTIMNTIKMVTLQLLNQQEQEKEESSSEEEEEKAEERPRRPSQEQSASASSGQPQAPLNRERPESPMVPSEQVVEEAVPLPPQALTTSQDGHRRKGDSEAEALSEIKDGSLPPELSCIPSHRVLGPPTSIPPEPLGPVSMDSECEESLAASPMAAKPDNPSGKVCVREVAPDGPLQESSTRLSLTSDPEEGDPLALGPESPGEPQPPQLKKDDVTSSTGPHKELSSTEAGSTVAGAALRPSHHSQRSSLSGDEEDELFKGATLKALRPKAQPEEEDEDEVSMKGRPPPTPLFGDDDDDDDIDWLG [FKBP15]”, the “solubility in G1/S (log2)” value in series [1] is 0.0656. Besides, the figures for the melting temperature in series [2] (cell cycle stage: G1/S) and in series [2] (cell cycle stage: mitosis) were 49.6 °C and 50 °C, respectively. Also, the “solubility change mitosis (log2)” value in series [3] was -0.0387. Further, the results for the thermal stability score in series [4] (setting [5]) and in series [4] (cell cycle stage: mitosis) were -0.146 and 1.12, respectively.

For the substance TATDN1, the “solubility in G1/S (log2)” value in series [1] stood at 0.194. For the same substance, the melting temperature is 56.1 °C in series [2] (cell cycle stage: G1/S) and 56.4 °C in series [2] (cell cycle stage: mitosis). Further, the “solubility change mitosis (log2)” value in series [3] was -0.119. In addition, the thermal stability score in series [4] (setting [5]) was -1.11; in series [4] (cell cycle stage: mitosis), -2.1.

Regarding “MATRVEEAARGRGGGAEEATEAGRGGRRRSPRQKFEIGTMEEAGICGLGVKADMLCNSQSNDILQHQGSNCGGTSNKHSLEEDEGSDFITENRNLVSPAYCTQESREEIPGGEARTDPPDGQQDSECNRNKEKTLGKEVLLLMQALNTLSTPEEKLAALCKKYADLLEESRSVQKQMKILQKKQAQIVKEKVHLQSEHSKAILARSKLESLCRELQRHNKTLKEENMQQAREEEERRKEATAHFQITLNEIQAQLEQHDIHNAKLRQENIELGEKLKKLIEQYALREEHIDKVFKHKELQQQLVDAKLQQTTQLIKEADEKHQREREFLLKEATESRHKYEQMKQQEVQLKQQLSLYMDKFEEFQTTMAKSNELFTTFRQEMEKMTKKIKKLEKETIIWRTKWENNNKALLQMAEEKTVRDKEYKALQIKLERLEKLCRALQTERNELNEKVEVLKEQVSIKAAIKAANRDLATPVMQPCTALDSHKELNTSSKRALGAHLEAEPKSQRSAVQKPPSTGSAPAIESVD [TXLNG]”, the “solubility in G1/S (log2)” value in series [1] was found to be 0.584. Besides, the melting temperature in series [2] (cell cycle stage: G1/S) and in series [2] (cell cycle stage: mitosis) was 52.5 °C throughout. Further, the “solubility change mitosis (log2)” value in series [3] worked out at 0.0514. Besides, the figures for the thermal stability score in series [4] (setting [5]) and in series [4] (cell cycle stage: mitosis) were -0.882 and -2.17, respectively.

Consider “MSAGEVERLVSELSGGTGGDEEEEWLYGGPWDVHVHSDLAKDLDENEVERPEEENASANPPSGIEDETAENGVPKPKVTETEDDSDSDSDDDEDDVHVTIGDIKTGAPQYGSYGTAPVNLNIKTGGRVYGTTGTKVKGVDLDAPGSINGVPLLEVDLDSFEDKPWRKPGADLSDYFNYGFNEDTWKAYCEKQKRIRMGLEVIPVTSTTNKITAEDCTMEVTPGAEIQDGRFNLFKVQQGRTGNSEKETALPSTKAEFTSPPSLFKTGLPPSRNSTSSQSQTSTASRKANSSVGKWQDRYGRAESPDLRRLPGAIDVIGQTITISRVEGRRRANENSNIQVLSERSATEVDNNFSKPPPFFPPGAPPTHLPPPPFLPPPPTVSTAPPLIPPPGFPPPPGAPPPSLIPTIESGHSSGYDSRSARAFPYGNVAFPHLPGSAPSWPSLVDTSKQWDYYARREKDRDRERDRDRERDRDRDRERERTRERERERDHSPTPSVFNSDEERYRYREYAERGYERHRASREKEERHRERRHREKEETRHKSSRSNSRRRHESEEGDSHRRHKHKKSKRSKEGKEAGSEPAPEQESTEATPAE [FIP1L1]”, for which, in series [1], the “solubility in G1/S (log2)” value was -0.594. Moreover, the melting temperature in series [2] (cell cycle stage: G1/S) was 48.8 °C; in series [2] (cell cycle stage: mitosis) it was 49.9 °C. Moreover, the “solubility change mitosis (log2)” value in series [3] stood at 0.265. Also, the thermal stability score was found to be 0.669 in series [4] (setting [5]) and 2.71 in series [4] (cell cycle stage: mitosis).

In the case of SAR1B, in series [1], the “solubility in G1/S (log2)” value was -0.00727. The melting temperature in series [2] (cell cycle stage: G1/S) was found to be 52.3 °C; in series [2] (cell cycle stage: mitosis), 53.4 °C. Moreover, in series [3], the “solubility change mitosis (log2)” value was -0.182. Further, the thermal stability score in series [4] (setting [5]) was 0.15; in series [4] (cell cycle stage: mitosis), 0.55.

“MAGTVVLDDVELREAQRDYLDFLDDEEDQGIYQSKVRELISDNQYRLIVNVNDLRRKNEKRANRLLNNAFEELVAFQRALKDFVASIDATYAKQYEEFYVGLEGSFGSKHVSPRTLTSCFLSCVVCVEGIVTKCSLVRPKVVRSVHYCPATKKTIERRYSDLTTLVAFPSSSVYPTKDEENNPLETEYGLSVYKDHQTITIQEMPEKAPAGQLPRSVDVILDDDLVDKAKPGDRVQVVGTYRCLPGKKGGYTSGTFRTVLIACNVKQMSKDAQPSFSAEDIAKIKKFSKTRSKDIFDQLAKSLAPSIHGHDYVKKAILCLLLGGVERDLENGSHIRGDINILLIGDPSVAKSQLLRYVLCTAPRAIPTTGRGSSGVGLTAAVTTDQETGERRLEAGAMVLADRGVVCIDEFDKMSDMDRTAIHEVMEQGRVTIAKAGIHARLNARCSVLAAANPVYGRYDQYKTPMENIGLQDSLLSRFDLLFIMLDQMDPEQDREISDHVLRMHRYRAPGEQDGDAMPLGSAVDILATDDPNFSQEDQQDTQIYEKHDNLLHGTKKKKEKMVSAAFMKKYIHVAKIIKPVLTQESATYIAEEYSRLRSQDSMSSDTARTSPVTARTLETLIRLATAHAKARMSKTVDLQDAEEAVELVQYAYFKKVLEKEKKRKKRSEDESETEDEEEKSQEDQEQKRKRRKTRQPDAKDGDSYDPYDFSDTEEEMPQVHTPKTADSQETKESQKVELSESRLKAFKVALLDVFREAHAQSIGMNRLTESINRDSEEPFSSVEIQAALSKMQDDNQVMVSEGIIFLI [MCM3]”: the “solubility in G1/S (log2)” value in series [1] was 0.00594. For the same substance, the values for the melting temperature in series [2] (cell cycle stage: G1/S) and in series [2] (cell cycle stage: mitosis) were 51.5 °C and 51.2 °C, respectively. In addition, the “solubility change mitosis (log2)” value in series [3] was -0.0464. Further, the thermal stability score in series [4] (setting [5]) was found to be 1.52; in series [4] (cell cycle stage: mitosis), 2.24.
